From US20130217582, “Library Compositions and Methods for Acyclic Identification of Aptamers” (published 2013)

These binders were tested against Coagulation factor IXa (FIXa) (Homo sapiens, UniProt P00740;P00740 P00740:47-191,P00740:227-461) (assay: EMSA; estimated by mobility shift compared to a known FIXa aptamer; native PAGE 4 C; T7 transcript starts with GG before F5). Conditions: tags: Haematologic Technologies; immobilized on con-A beads for partitioning; putative G/U quadruplex.
Chain of Coagulation factor IXa (FIXa) (P00740 47-191, chain 1 of 2): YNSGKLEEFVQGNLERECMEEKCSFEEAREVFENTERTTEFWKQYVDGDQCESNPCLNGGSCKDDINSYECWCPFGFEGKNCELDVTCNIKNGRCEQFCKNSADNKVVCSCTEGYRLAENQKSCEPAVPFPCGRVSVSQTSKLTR
Chain of Coagulation factor IXa (FIXa) (P00740 227-461, chain 2 of 2): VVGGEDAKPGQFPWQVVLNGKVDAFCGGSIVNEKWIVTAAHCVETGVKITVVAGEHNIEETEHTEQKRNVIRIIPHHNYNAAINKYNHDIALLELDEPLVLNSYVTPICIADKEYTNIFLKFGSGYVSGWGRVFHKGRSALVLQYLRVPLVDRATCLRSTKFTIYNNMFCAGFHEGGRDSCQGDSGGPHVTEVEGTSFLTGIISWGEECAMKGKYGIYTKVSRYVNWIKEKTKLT

Binder | Kd [nM]
FIXa aptamer rank 2 (SEQ 114/151) (ssRNA) RNA: ACGACGCUCUUCCGAUCUAUGGAGGGCAGCCCGGUAGUCGCCCACGGGGAACGCGUCAAGCUAACGGAGCUCGUAUGC | ~220
FIXa aptamer rank 1 (SEQ 133/150) (ssRNA) RNA: ACGACGCUCUUCCGAUCUAUGGUUCCAGUCGGUGAACUUCCUGAGUCCGGUGUGUGCAAGCUAACGGAGCUCGUAUGC | ~220
FIXa aptamer rank 3 (SEQ 122/152) (ssRNA) RNA: ACGACGCUCUUCCGAUCUAUGGUCAUACGCGCAGGCUGGAGGUAUUACCCCCCGGGCAAGCUAACGGAGCUCGUAUGC | ~700
